# Results as given in IntAct's records for PubMed 18571510.
# B1: Regulatory protein NPR1 (Arabidopsis thaliana (Mouse-ear cress)), P93002 (parent)
# chain: MDTTIDGFADSYEISSTSFVATDNTDSSIVYLAAEQVLTGPDVSALQLLSNSFESVFDSPDDFYSDAKLVLSDGREVSFHRCVLSARSSFFKSALAAAKKEKDSNNTAAVKLELKEIAKDYEVGFDSVVTVLAYVYSSRVRPPPKGVSECADENCCHVACRPAVDFMLEVLYLAFIFKIPELITLYQRHLLDVVDKVVIEDTLVILKLANICGKACMKLLDRCKEIIVKSNVDMVSLEKSLPEELVKEIIDRRKELGLEVPKVKKHVSNVHKALDSDDIELVKLLLKEDHTNLDDACALHFAVAYCNVKTATDLLKLDLADVNHRNPRGYTVLHVAAMRKEPQLILSLLEKGASASEATLEGRTALMIAKQATMAVECNNIPEQCKHSLKGRLCVEILEQEDKREQIPRDVPPSFAVAADELKMTLLDLENRVALAQRLFPTEAQAAMEIAEMKGTCEFIVTSLEPDRLTGTKRTSPGVKIAPFRILEEHQSRLKALSKTVELGKRFFPRCSAVLDQIMNCEDLTQLACGEDDTAEKRLQKKQRYMEIQETLKKAFSEDNLELGNSSLTDSTSSTSKSTGGKRSNRKLSHRRR
# partner: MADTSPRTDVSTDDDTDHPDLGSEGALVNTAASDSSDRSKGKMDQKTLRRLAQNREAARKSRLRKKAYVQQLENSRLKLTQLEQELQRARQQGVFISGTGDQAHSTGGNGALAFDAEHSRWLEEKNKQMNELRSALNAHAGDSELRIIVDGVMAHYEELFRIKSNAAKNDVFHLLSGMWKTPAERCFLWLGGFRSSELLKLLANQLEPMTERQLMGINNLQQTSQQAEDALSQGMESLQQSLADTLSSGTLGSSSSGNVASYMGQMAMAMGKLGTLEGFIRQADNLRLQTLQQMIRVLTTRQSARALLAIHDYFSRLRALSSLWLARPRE
# Variants of: B1
# Conditions: with tga2_arath TGA2, P43273
row,Variant,effect of a mutation on the interaction
1,MDTTIDGFADSYEISSTSFVATDNTDSSIVYLAAEQVLTGPDVSALQLLSNSFESVFDSPDDFYSDAKLVLSDGREVSFHRCVLSARSSFFKSALAAAKKEKDSNNTAAVKLELKEIAKDYEVGFDSVVTVLAYVYSSRVRPPPKGVSEYADENCCHVACRPAVDFMLEVLYLAFIFKIPELITLYQRHLLDVVDKVVIEDTLVILKLANICGKACMKLLDRCKEIIVKSNVDMVSLEKSLPEELVKEIIDRRKELGLEVPKVKKHVSNVHKALDSDDIELVKLLLKEDHTNLDDACALHFAVAYCNVKTATDLLKLDLADVNHRNPRGYTVLHVAAMRKEPQLILSLLEKGASASEATLEGRTALMIAKQATMAVECNNIPEQCKHSLKGRLCVEILEQEDKREQIPRDVPPSFAVAADELKMTLLDLENRVALAQRLFPTEAQAAMEIAEMKGTCEFIVTSLEPDRLTGTKRTSPGVKIAPFRILEEHQSRLKALSKTVELGKRFFPRCSAVLDQIMNCEDLTQLACGEDDTAEKRLQKKQRYMEIQETLKKAFSEDNLELGNSSLTDSTSSTSKSTGGKRSNRKLSHRRR [C150Y],disrupting interaction
